Laboratory results as given in US20200087373A1 (UNIVERSITY OF COPENHAGEN, published 2020).
Ends that are not written are not given here. * marks the point of attachment. C16 diacid = O=C(O)CCCCCCCCCCCCCCC(=O)*

B1: AT172 [hGIP(5-30)NH2[Y10K]-C16diacid/10] (peptide)
peptide: TFISDK(C16 diacid)SIAMDKIHQQDFVNWLLAQK-NH2
modifications: N-terminus assumed
SMILES: CC[C@H](C)[C@H](NC(=O)[C@H](CO)NC(=O)[C@H](CCCCNC(=O)CCCCCCCCCCCCCCC(=O)O)NC(=O)[C@H](CC(=O)O)NC(=O)[C@H](CO)NC(=O)[C@@H](NC(=O)[C@H](Cc1ccccc1)NC(=O)[C@@H](N)[C@@H](C)O)[C@@H](C)CC)C(=O)N[C@@H](C)C(=O)N[C@@H](CCSC)C(=O)N[C@@H](CC(=O)O)C(=O)N[C@@H](CCCCN)C(=O)N[C@H](C(=O)N[C@@H](Cc1c[nH]cn1)C(=O)N[C@@H](CCC(N)=O)C(=O)N[C@@H](CCC(N)=O)C(=O)N[C@@H](CC(=O)O)C(=O)N[C@@H](Cc1ccccc1)C(=O)N[C@H](C(=O)N[C@@H](CC(N)=O)C(=O)N[C@@H](Cc1c[nH]c2ccccc12)C(=O)N[C@@H](CC(C)C)C(=O)N[C@@H](CC(C)C)C(=O)N[C@@H](C)C(=O)N[C@@H](CCC(N)=O)C(=O)N[C@@H](CCCCN)C(N)=O)C(C)C)[C@@H](C)CC
B2: AT175 [hGIP(5-30)NH2[A13K]-C16diacid/13] (peptide)
peptide: TFISDYSIK(C16 diacid)MDKIHQQDFVNWLLAQK-NH2
modifications: N-terminus assumed
SMILES: CC[C@H](C)[C@H](NC(=O)[C@H](CCCCN)NC(=O)[C@H](CC(=O)O)NC(=O)[C@H](CCSC)NC(=O)[C@H](CCCCNC(=O)CCCCCCCCCCCCCCC(=O)O)NC(=O)[C@@H](NC(=O)[C@H](CO)NC(=O)[C@H](Cc1ccc(O)cc1)NC(=O)[C@H](CC(=O)O)NC(=O)[C@H](CO)NC(=O)[C@@H](NC(=O)[C@H](Cc1ccccc1)NC(=O)[C@@H](N)[C@@H](C)O)[C@@H](C)CC)[C@@H](C)CC)C(=O)N[C@@H](Cc1c[nH]cn1)C(=O)N[C@@H](CCC(N)=O)C(=O)N[C@@H](CCC(N)=O)C(=O)N[C@@H](CC(=O)O)C(=O)N[C@@H](Cc1ccccc1)C(=O)N[C@H](C(=O)N[C@@H](CC(N)=O)C(=O)N[C@@H](Cc1c[nH]c2ccccc12)C(=O)N[C@@H](CC(C)C)C(=O)N[C@@H](CC(C)C)C(=O)N[C@@H](C)C(=O)N[C@@H](CCC(N)=O)C(=O)N[C@@H](CCCCN)C(N)=O)C(C)C
B3: AT174 [hGIP(5-30)NH2[I12K]-C16diacid/12] (peptide)
peptide: TFISDYSK(C16 diacid)AMDKIHQQDFVNWLLAQK-NH2
modifications: N-terminus assumed
SMILES: CC[C@H](C)[C@H](NC(=O)[C@H](CCCCN)NC(=O)[C@H](CC(=O)O)NC(=O)[C@H](CCSC)NC(=O)[C@H](C)NC(=O)[C@H](CCCCNC(=O)CCCCCCCCCCCCCCC(=O)O)NC(=O)[C@H](CO)NC(=O)[C@H](Cc1ccc(O)cc1)NC(=O)[C@H](CC(=O)O)NC(=O)[C@H](CO)NC(=O)[C@@H](NC(=O)[C@H](Cc1ccccc1)NC(=O)[C@@H](N)[C@@H](C)O)[C@@H](C)CC)C(=O)N[C@@H](Cc1c[nH]cn1)C(=O)N[C@@H](CCC(N)=O)C(=O)N[C@@H](CCC(N)=O)C(=O)N[C@@H](CC(=O)O)C(=O)N[C@@H](Cc1ccccc1)C(=O)N[C@H](C(=O)N[C@@H](CC(N)=O)C(=O)N[C@@H](Cc1c[nH]c2ccccc12)C(=O)N[C@@H](CC(C)C)C(=O)N[C@@H](CC(C)C)C(=O)N[C@@H](C)C(=O)N[C@@H](CCC(N)=O)C(=O)N[C@@H](CCCCN)C(N)=O)C(C)C
B4: AT173 [hGIP(5-30)NH2[S11K]-C16diacid/11] (peptide)
peptide: TFISDYK(C16 diacid)IAMDKIHQQDFVNWLLAQK-NH2
modifications: N-terminus assumed
SMILES: CC[C@H](C)[C@H](NC(=O)[C@H](CCCCNC(=O)CCCCCCCCCCCCCCC(=O)O)NC(=O)[C@H](Cc1ccc(O)cc1)NC(=O)[C@H](CC(=O)O)NC(=O)[C@H](CO)NC(=O)[C@@H](NC(=O)[C@H](Cc1ccccc1)NC(=O)[C@@H](N)[C@@H](C)O)[C@@H](C)CC)C(=O)N[C@@H](C)C(=O)N[C@@H](CCSC)C(=O)N[C@@H](CC(=O)O)C(=O)N[C@@H](CCCCN)C(=O)N[C@H](C(=O)N[C@@H](Cc1c[nH]cn1)C(=O)N[C@@H](CCC(N)=O)C(=O)N[C@@H](CCC(N)=O)C(=O)N[C@@H](CC(=O)O)C(=O)N[C@@H](Cc1ccccc1)C(=O)N[C@H](C(=O)N[C@@H](CC(N)=O)C(=O)N[C@@H](Cc1c[nH]c2ccccc12)C(=O)N[C@@H](CC(C)C)C(=O)N[C@@H](CC(C)C)C(=O)N[C@@H](C)C(=O)N[C@@H](CCC(N)=O)C(=O)N[C@@H](CCCCN)C(N)=O)C(C)C)[C@@H](C)CC
B5: AT176 [hGIP(5-30)NH2[M14K]-C16diacid/14] (peptide)
peptide: TFISDYSIAK(C16 diacid)DKIHQQDFVNWLLAQK-NH2
modifications: N-terminus assumed
SMILES: CC[C@H](C)[C@H](NC(=O)[C@H](CO)NC(=O)[C@H](Cc1ccc(O)cc1)NC(=O)[C@H](CC(=O)O)NC(=O)[C@H](CO)NC(=O)[C@@H](NC(=O)[C@H](Cc1ccccc1)NC(=O)[C@@H](N)[C@@H](C)O)[C@@H](C)CC)C(=O)N[C@@H](C)C(=O)N[C@@H](CCCCNC(=O)CCCCCCCCCCCCCCC(=O)O)C(=O)N[C@@H](CC(=O)O)C(=O)N[C@@H](CCCCN)C(=O)N[C@H](C(=O)N[C@@H](Cc1c[nH]cn1)C(=O)N[C@@H](CCC(N)=O)C(=O)N[C@@H](CCC(N)=O)C(=O)N[C@@H](CC(=O)O)C(=O)N[C@@H](Cc1ccccc1)C(=O)N[C@H](C(=O)N[C@@H](CC(N)=O)C(=O)N[C@@H](Cc1c[nH]c2ccccc12)C(=O)N[C@@H](CC(C)C)C(=O)N[C@@H](CC(C)C)C(=O)N[C@@H](C)C(=O)N[C@@H](CCC(N)=O)C(=O)N[C@@H](CCCCN)C(N)=O)C(C)C)[C@@H](C)CC
B6: AT177 [hGIP(5-30)NH2[D15K]-C16diacid/15] (peptide)
peptide: TFISDYSIAMK(C16 diacid)KIHQQDFVNWLLAQK-NH2
modifications: N-terminus assumed
SMILES: CC[C@H](C)[C@H](NC(=O)[C@H](CO)NC(=O)[C@H](Cc1ccc(O)cc1)NC(=O)[C@H](CC(=O)O)NC(=O)[C@H](CO)NC(=O)[C@@H](NC(=O)[C@H](Cc1ccccc1)NC(=O)[C@@H](N)[C@@H](C)O)[C@@H](C)CC)C(=O)N[C@@H](C)C(=O)N[C@@H](CCSC)C(=O)N[C@@H](CCCCNC(=O)CCCCCCCCCCCCCCC(=O)O)C(=O)N[C@@H](CCCCN)C(=O)N[C@H](C(=O)N[C@@H](Cc1c[nH]cn1)C(=O)N[C@@H](CCC(N)=O)C(=O)N[C@@H](CCC(N)=O)C(=O)N[C@@H](CC(=O)O)C(=O)N[C@@H](Cc1ccccc1)C(=O)N[C@H](C(=O)N[C@@H](CC(N)=O)C(=O)N[C@@H](Cc1c[nH]c2ccccc12)C(=O)N[C@@H](CC(C)C)C(=O)N[C@@H](CC(C)C)C(=O)N[C@@H](C)C(=O)N[C@@H](CCC(N)=O)C(=O)N[C@@H](CCCCN)C(N)=O)C(C)C)[C@@H](C)CC

Key:
human GIP receptor [1] = target: T1, human GIP receptor (human, UniProt P48546 22-466); assay: cell-based or functional assay
T1 sequence (looked up): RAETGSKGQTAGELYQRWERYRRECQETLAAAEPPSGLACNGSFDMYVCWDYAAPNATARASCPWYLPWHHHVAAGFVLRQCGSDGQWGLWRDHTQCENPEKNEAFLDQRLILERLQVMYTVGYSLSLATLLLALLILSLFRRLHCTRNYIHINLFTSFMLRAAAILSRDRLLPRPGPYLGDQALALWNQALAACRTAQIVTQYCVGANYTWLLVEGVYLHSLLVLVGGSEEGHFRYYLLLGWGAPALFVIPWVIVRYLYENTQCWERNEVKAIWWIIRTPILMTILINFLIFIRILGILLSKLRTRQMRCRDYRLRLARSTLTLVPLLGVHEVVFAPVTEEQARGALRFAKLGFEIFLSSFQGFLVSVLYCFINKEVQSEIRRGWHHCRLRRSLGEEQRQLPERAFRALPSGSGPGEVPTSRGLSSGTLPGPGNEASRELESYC

human GIP receptor [2] = target: T1, human GIP receptor; assay: 125I-hGIP(1-42) competition binding, COS-7 cells expressing human GIPR, without HSA;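 also: nonspecific binding defined as radioligand bound to cells lacking the transfected receptor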
Experimental: (§1) After incubation, the cells were washed twice in ice-cold binding buffer (+/−2% HSA) and lysed using 200 mM NaOH with 1% SDS for 30 min. Nonspecific binding was determined as the binding of radioactive ligand to untransfected cells.

human GIP receptor [3] = target: T1, human GIP receptor; assay: ratio of Ki with 2% HSA to Ki without HSA, 125I-hGIP competition binding on hGIPR COS-7 cells;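 also: nonspecific binding was defined as radioligand signal on cells lacking the receptor transfection, with cell lysates measured after washes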
Experimental: as §1

human GIP receptor [4] = target: T1, human GIP receptor; assay: 125I-hGIP(1-42) competition binding, COS-7 cells expressing human GIPR, with 2% HSA;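 also: nonspecific signal taken as radioligand bound to untransfected cells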
Experimental: as §1

| Binder | cAMP accumulation Fold (fold change from GIP(5-30)NH2) (human GIP receptor [1]) [fold] | cAMP accumulation IC50 (human GIP receptor [1]) [nM] | cAMP accumulation logIC50 (human GIP receptor [1]) | Ki (human GIP receptor [2]) [nM] | Fold (Ki + HSA / Ki - HSA) (human GIP receptor [3]) [fold] | Ki (human GIP receptor [4]) [nM] |
| --- | --- | --- | --- | --- | --- | --- |
| B1 | 14.1 | 389 | -6.41 log(M) | 281 | 2.8 | 807 |
| B2 | 0.5 | 14.1 | -7.85 log(M) | 53 | 9.4 | 498 |
| B3 | 0.9 | 23.4 | -7.63 log(M) | 56.1 | 6.1 | 342 |
| B4 | 0.3 | 9.1 | -8.04 log(M) | 6 | 9.7 | 58.7 |
| B5 | 3.8 | 105 | -6.98 log(M) | 82.6 | 5.1 | 420 |
| B6 | 1.3 | 37.2 | -7.43 log(M) | 117 | 3.8 | 444 |
